Results taken from publication PMC3088358.

What was measured:
[1] = target: recombinant human BMP1 protein (human) (UniProt P13497); assay: enzyme inhibition kinetics
[2] = target: Xenopus Crescent-Flag (Xenopus laevis); assay: SPR

Ki [1]	Kd [2]	Substance
59 nM		Xenopus Crescent-Flag (natural protein)
	11 nM	recombinant human BMP1 protein (from UniProt P13497 23-986) (enzyme)
